# Reference: patent publication US20230296605A1
# How the values were obtained:
# [1] = target: PRRSV viral lysate (Porcine Reproductive and Respiratory Syndrome Virus); test: […], antibody immobilized; […]
# [2] = target: PRRSV viral lysate (Porcine Reproductive and Respiratory Syndrome Virus); test: ELISA, coated lysate, 1 ug antibody
# [3] = target: PRRSV viral lysate (Porcine Reproductive and Respiratory Syndrome Virus); test: ELISA Test 2, coated lysate, antibody 1:4000; PBS control 0.118/0.121
# [4] = target: lysate of porcine coronavirus; test: ELISA Test 2, coated lysate, antibody 1:4000; PBS control 0.140/0.145
# [5] = target: lysate of porcine circovirus type 2; test: ELISA Test 2, coated lysate, antibody 1:4000; PBS control 0.162/0.153
# [6] = target: PRRSV viral lysate (Porcine Reproductive and Respiratory Syndrome Virus); test: ELISA Test 1, coated lysate, antibody 1:4000, Group 1; PBS control 0.073/0.072
# [7] = target: lysate of porcine pseudorabies virus; test: ELISA Test 1, coated lysate, antibody 1:4000, Group 1; PBS control 0.080/0.089
# [8] = target: lysate of porcine pseudorabies virus; test: ELISA Test 1, coated lysate, antibody 1:4000, Group 2; PBS control 0.054/0.052
# [9] = target: PRRSV viral lysate (Porcine Reproductive and Respiratory Syndrome Virus); test: ELISA Test 1, coated lysate, antibody 1:4000, Group 2; PBS control 0.058/0.060
binder,measurement,setting,value
"anti-PRRSV antibody 477 (antibody, V domains shown) VH: QVHVKQSGAELAKPGASVKMSCKASGYTFTNYWMHWVKQRPGQGLEWIGYINPSTGYTEYNQKFKDKATLTADKSSSTASMQLSSLTSEDSAVYYCGRSTAYGKYGEAWFAYWGQGTLVTVSA VL: DIVMTQSPASLAVSLGQRATISCRTSESVDSFGNSFMHWYQQKPGQPPKLLIYLASNLESGVPARFSGSGSRTDFTLTIDPVEADDAATYYCQQNNEDPYTFGGGTKLEIKR","electric signal, fold over the negative control",[1],3 times
same,lowest concentration of PRRSV recognized,[2],< 0.78 ng
same,OD450,[3],0.66 OD450
same,OD450,[4],0.375 OD450
same,OD450,[5],0.303 OD450
same,OD450,[6],0.151 OD450
same,OD450,[7],0.095 OD450
same,OD450,[8],0.08 OD450
same,OD450,[9],0.129 OD450
